# Source: US20130183348A1, “Inhibitor of HMGB Protein-Mediated Immune Response Activation, and Screening Method” (JAPAN SCIENCE AND TECHNOLOGY AGENCY, published 2013)
# T1: CFP-tagged RIG-I (CFP-RIG-I) (mouse, UniProt Q6Q899 1-926)
# T1 construct: Expressed in HeLa cells from the pCAGGS-CFP vector; not shown: CFP tag from the pCAGGS-CFP vector
# T1 sequence (looked up): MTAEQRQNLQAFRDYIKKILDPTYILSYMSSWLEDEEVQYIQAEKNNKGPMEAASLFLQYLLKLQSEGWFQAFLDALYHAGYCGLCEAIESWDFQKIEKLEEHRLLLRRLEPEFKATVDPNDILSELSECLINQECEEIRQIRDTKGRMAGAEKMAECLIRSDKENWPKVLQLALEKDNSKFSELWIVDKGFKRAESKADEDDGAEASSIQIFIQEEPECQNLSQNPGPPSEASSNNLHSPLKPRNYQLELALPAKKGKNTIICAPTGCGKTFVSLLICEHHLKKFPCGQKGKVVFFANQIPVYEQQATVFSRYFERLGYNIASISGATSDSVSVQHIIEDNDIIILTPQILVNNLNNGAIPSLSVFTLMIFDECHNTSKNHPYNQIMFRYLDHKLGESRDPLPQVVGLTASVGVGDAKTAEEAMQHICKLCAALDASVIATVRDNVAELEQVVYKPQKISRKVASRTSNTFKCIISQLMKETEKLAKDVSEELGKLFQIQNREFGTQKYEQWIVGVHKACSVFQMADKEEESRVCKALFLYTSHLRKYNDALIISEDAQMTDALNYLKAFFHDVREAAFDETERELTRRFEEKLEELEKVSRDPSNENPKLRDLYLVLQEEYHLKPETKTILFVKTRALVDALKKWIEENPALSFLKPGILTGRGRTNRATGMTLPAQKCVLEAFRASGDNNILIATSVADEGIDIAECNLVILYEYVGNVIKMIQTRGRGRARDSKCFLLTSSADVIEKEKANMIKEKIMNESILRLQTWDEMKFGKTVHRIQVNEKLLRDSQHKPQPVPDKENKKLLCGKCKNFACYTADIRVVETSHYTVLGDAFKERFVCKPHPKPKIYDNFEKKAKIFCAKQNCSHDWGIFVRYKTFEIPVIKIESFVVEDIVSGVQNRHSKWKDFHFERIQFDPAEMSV
# B1: YFP-tagged HMGB1 (YFP-HMGB1) (other, mouse, UniProt P63158 1-215, looked up)
# chain: MGKGDPKKPRGKMSSYAFFVQTCREEHKKKHPDASVNFSEFSKKCSERWKTMSAKEKGKFEDMAKADKARYEREMKTYIPPKGETKKKFKDPNAPKRPPSAFFLFCSEYRPKIKGEHPGLSIGDVAKKLGEMWNNTAADDKQPYEKKAAKLKEKYEKDIAAYRAKGKPDAAKKGVVKAEKSKKKKEEEDDEEDEEDEEEEEEEEDEDEEEDDDDE
# notes: Expressed in HeLa cells from the pCAGGS-YFP vector; not shown: YFP tag from the pCAGGS-YFP vector
# Assays:
# HMGB1 [1] = target: T2, HMGB1 (Mus musculus, UniProt P63158 SEQ:1-215); test: pulldown; CpG-B ODN competing biotin-B-DNA; recombinant HMGB1 or 2 used, protein of this panel not specified; settings: tags: GST-tagged, tag removed with thrombin (pGEX4T3)
# Experimental: (§1) In vitro pull-down assay was carried out as follows. At first, a recombinant of HMGB1, 2, or 3 was treated in the presence or absence of a competitor at room temperature for 30 minutes. The supernatant was mixed with a biotin-labeled B-DNA at 4° C. for 30 minutes, then streptavidin-bound magnetic beads (Invitrogen Corporation) were added thereto, and the mixture was incubated in a binding buffer (50 mM Tris-Cl, pH 7.5, 150 mM NaCl, 1 mM EDTA, 1% NP-40, 100 μg/mL leupeptin, 1 mM PMSF, 1 mM Na₃VO₄). Subsequently, the mixture was sufficiently washed with a binding buffer, was separated by SDS-PAGE, and then was immunoblotted using an anti-HMGB1, 2, or 3 antibody.
# Binding of HMGB to DNA, RNA and base-free phosphorothioate deoxyribose homopolymer (PS) was investigated. In vitro pull-down assay using recombinant HMGB1 or 2 and biotin-bound B-DNA was performed in the presence of 1, 3, 10, 30 and 100 μg/mL of unlabeled nucleic acid (B-DNA, poly(I:C), poly(U), bovine thymus DNA, or microbial DNA), R837 (1, 3, 10, 30 and 100 μg/mL) (upper and middle panels), base-free natural deoxyribose homopolymer (PD: 0.01, 0.1, 0.3, 1 and 3 μg/mL, lower panel), or base-free phosphorothioate deoxyribose homopolymer (PS: 0.01, 0.1, 0.3, 1 and 3 μg/mL, lower panel). In the lower panel, unlabeled B-DNA or CpG-B ODN having stepwise increasing concentrations (0.1, 0.3, 1 and 3 μg/mL) was also used. […]
# HMGB1 [2] = target: T2, HMGB1; test: pulldown; biotin-CpG-B(S) 0.2 uM pulled down HMGB1; also completely inhibited B-DNA binding; settings: tags: GST-tagged, tag removed with thrombin (pGEX4T3)
# Experimental: (§2) In more detail, a final concentration of 0, 0.1, 0.5, 2.5, 12.5, or 62.5 μg/mL of CpG-B(S) as a competitor was added to 2 μg of a recombinant HMGB1 protein and a final concentration of 2.5 μg/mL of biotin-labeled B-DNA, and they were incubated (room temperature, 30 minutes). The biotin-labeled B-DNA was pulled down with streptavidin-bound magnetic beads, and HMGB1 in the coprecipitated protein was detected by Western blotting using an anti-HMGB1 antibody. In addition, a final concentration of 0, 1, 2, 4, 8, 16, or 32 μM of a competitor: CpG-B(S) not labeled with biotin, CpG-M(S), ODN(PS) composed of only a phosphorothioate backbone and not having any base, or ODN(CpG-M) having the same sequence as that of CpG-M(S) and a phosphodiester backbone, was added to 2 μg of the recombinant HMGB1 protein and a final concentration of 0.2 μM of biotin-labeled CpG-B(S). The biotin-labeled CpG-B was pulled down with streptavidin-bound magnetic beads, and HMGB1 in the coprecipitated protein was detected by Western blotting using an anti-HMGB1 antibody.
# HMGB1 [3] = target: T2, HMGB1; test: competition; competes biotin-CpG-B(S) equally to unlabeled CpG-B(S); higher competitivity than PS; settings: tags: GST-tagged, tag removed with thrombin (pGEX4T3)
# Experimental: as §2
# [4] = target: T1, CFP-tagged RIG-I (CFP-RIG-I); test: confocal fluorescence microscopy of HeLa cells cotransfected with CFP-RIG-I and YFP-HMGB1 and stimulated with poly(I:C); the filing's interpretation of co-localisation
# Experimental: Intracellular localization of HMGB1 and RIG-I was investigated. Expression vectors of CFP-tagged RIG-I (CFP-RIG-I) and YFP-tagged HMGB1 (YFP-HMGB1) were introduced, together with RFP-tagged Rab5 (RFP-Rab5) or without RFP-Rab5, into HeLa cells. At 16 hours after the gene transfer, the cells were stimulated with poly(I:C) for 2 hours, and fluorescence microscopic observation was performed using a laser scanning confocal microscope.
# HMGB1 [5] = target: T2, HMGB1; test: competition; competes biotin-B-DNA; higher competitivity than PS; settings: tags: GST-tagged, tag removed with thrombin (pGEX4T3)
# Experimental: as §1
# As in Example 13, in vitro pull-down assay using recombinant HMGB1 and biotin-bound B-DNA was performed for 0.1, 0.5, 2.5, 12.5 and 62.5 μg/mL of CpG-B(S), CpG-Rev(S), CpG-M(S) and PS, as competitors.
binder,measurement,setting,value
"TCCATGACGTTCCTGATGCT (ssDNA, PS all linkages) [CpG-B(S)]",binding result,HMGB1 [1],binds
same,binding result,HMGB1 [2],binds
"TCCATGAGGTTCCTGATGCT (ssDNA, PS all linkages) [CpG-M(S)]",binding result,HMGB1 [3],binds
B1,binding result,[4],binds
"TCCATGAGCTTCCTGATGCT (ssDNA, PS all linkages) [CpG-Rev(S)]",binding result,HMGB1 [5],binds
